The assay concerns the target T1, Recombinant human IL-17A (Peprotech, cat #AF-200-17) (human, UniProt Q16552 24-155).
T1 construct: Bought protein
Kind of assay: SPR (BIAcore T200), IL-17A coupled to CM5 chip, VH as analyte, single-cycle kinetics. (Surface plasmon resonance follows binding to a sensor surface in real time, without labels.)

T1 sequence (Q16552 24-155): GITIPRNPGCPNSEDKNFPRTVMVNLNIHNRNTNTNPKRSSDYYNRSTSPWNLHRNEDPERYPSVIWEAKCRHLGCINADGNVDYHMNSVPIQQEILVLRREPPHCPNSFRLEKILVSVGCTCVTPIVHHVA
Experimental: VH binding kinetics were then determined from the (blank subtracted) sensorgram traces using 1:1 binding models and BIAevaluation software.

B1: Clone 1.17 (VHH)
VHH: EVQLVESGGGLVQPGGSLRLSCAASGFTFSSYSMYWVRQAPGKGLEWVAEIKPTGSVQYYVSDVKGRFTISRDNAKNSLYLQMNSLRAEDTAVYYCAKGEILPLYFDYWGQGTLVTVSS
notes: Human single VH domain; also called VH 1.17.1
For the molecule B1, the Kd is 1.5 nM.

In general, Kd refers to the constant that tells how readily two partners part at equilibrium.

Source of the values: patent US20240199731A1 (published 2024).
